Measured values from patent publication US11235004B2, “Lymphocyte cell lines and uses thereof” (Innovative Cellular Therapeutics Holdings, Ltd., priority 2017, dated 2022).

Experiments:
CAR T-TSHR cells = experiment: Culture of CAR T-TSHR cells with soluble TSHR ECD; format: cell-based, human
Text: Primary T cells were transduced with lentiviral vectors encoding a TSHR CAR to obtain modified T cells including CAR T cells expressing anti-TSHR (thereafter “CAR T-TSHR cells”). The modified T cells were frozen and stored for 30 days. Techniques related to freezing T cells and thawing frozen T cells may be found in Levine et al., Molecular Therapy—Methods & Clinical Development, Molecular Therapy, Vol 4, Mar. 17, 2017.
The modified Tcells were thawed and divided into two groups and cultured, respectively. CAR T-TSHR cells in Group 1 were cultured with anti-CD3 & CD28 beads and IL2 for 10 days, while CAR T-TSHR cells in Group 2 were cultured with various concentrations of soluble TSHR (e.g., extracellular domain of TSHR, SEQ ID: 34), anti-CD3 & CD28 beads and IL2. For Group 2, 500,000 CAR T-TSHR cells were cultured with 10, 125, 500 ng/ml of soluble TSHR ECD for 14 days. The T cell population was observed by flow cytometry (FIGS. 8 and 9), and cellular morphology of the T cell population was observed under microscopes (FIG. 10).

[1] = test system: transduced T cells (ef1a-TK-IRES-rtTA-TRE-hTERT) and non-transduced T cells; experiment: Ganciclovir (TK suicide switch) cell growth test; format: cell-based, human; conditions: in the presence of GCV
Procedure: Experimental cells: CD8+CZY-1 SDS-T and NT cell; TK usage: Adult body concentration of 71.45 ng/ml/5000 ng/kg every 24 h injection. In vitro experimental concentration gradients: 357.2 ng/ml, 142.9 ng/ml, 71.45 ng/ml, 35.725 ng/ml, 14.28 ng/ml, 3.6 ng/ml. […] The starting cells were cultured in 200 w cell density of 50 w/ml.
In group three, transduced cells (ef1a-TK-IRES-rtTA-TRE-hTERT) were cultured using media containing Dox (2 μg/ml) and CD19 ECD (1 mg/250,000 CAR T cells). On day 90, various concentrations of GCV was added to the transduced cells. […] DTT cells represent transduced T cells and grew poorly in the presence of GCV.

[2] = test system: anti-CD19 CAR proliferable T cells; experiment: Culture of anti-CD19 CAR proliferable T cells with CD19 ECD; format: cell-based, human; conditions: CD19 ECD added to media (1 mg/250,000 CAR T cells)
Text: The primary T cells obtained from a healthy donor were transduced with lentiviral vectors encoding a CD19 CAR (SEQ ID NO: 21) and lentiviral vectors including sequence 1 or 6 as illustrated in FIG. 1 (ef1a-TK-IRES-rtTA-TRE-hTERT: SEQ ID NOs: 1, 2, 3, 4, 5, and 6 in the 5′ to 3′ order or ef1a-rtTA-TRE-hTERT: SEQ ID Nos: 1, 4, 5, and 6 in the 5′ to 3′ order) to obtain transduced T cells including immortalized T cells expressing anti-CD19 CAR (thereafter “anti-CD19 CAR proliferable T cells”) on day one. The anti-CD19 CAR proliferable T cells were divided into various groups and cultured in different media: in the presence of various concentrations of doxycycline (Dox), CD19 extracellular domain (ECD), and/or Ganciclovir (GCV)). In some groups, CD19 ECD (SEQ ID NO: 22) was added to media (1 mg/250,000 CAR T cells), and percentages of cells expressing CD19 CAR increased.

[3] = Survival and growth of various CAR T cells in vitro (FIG. 43); format: cell-based, human; conditions: medium containing CD19 ECD vs no CD19 ECD
Text: In Group 1 (hTert CD19 CAR), the primary T cells obtained from a healthy donor were transduced with a nucleic acid sequence encoding a CD19 CAR and a nucleic acid sequence encoding hTERT. In Group 2 (CD19 CAR), the primary T cells were transduced with the nucleic acid sequence encoding a CD19 CAR. […] CAR T cells are not comprising the nucleic acid sequence encoding hTERT begun to die after about 20 days after cells were transduced with the nucleic acid sequence encoding CAR.

K562-CD19 = experiment: IFN-gamma release of CAR T19 cells co-cultured with K562-CD19; format: cell-based; conditions: after 24 hours; Group 2 (pre-cultured with CD19) vs Group 1; E:T 1:1 or 1:10
Procedure: CAR T19 cells of Group 1 and Group 2 were cultured for about one to three weeks using the protocols described above, respectively. CAR T19 cells were then washed and placed into cultures without CD19. These CAR T19 cells were co-cultured with K562-CD19 (E:T 1:1 or 1:10). After 24 hours, 48 hours, and 72 hours, supernatant of the cultures were collected, and IFN-gamma released by the cells were measured to determine functions of CAR T19 cells.

CAR T19 cells = experiment: Culture of CAR T19 cells with or without soluble CD19 ECD; format: cell-based, human
Procedure: The primary T cells were transduced with lentiviral vectors encoding a CD19 CAR to obtain modified T cells including CAR T cells expressing anti-CD19 (thereafter “CAR T19 cells”) on day 1. The modified T cells were divided into two groups and cultured, respectively. CAR T19 cells in Group 1 were cultured with anti-CD3 & CD28 beads and IL2, while CAR T19 cells in Group 2 were cultured with soluble CD19 (e.g., extracellular domain (ECD) of CD19, SEQ ID: 41), anti-CD3 & CD28 beads and IL2. For Group 2, 500,000 CAR T19 cells were cultured with 2 micrograms of soluble CD19 at the starting point, and 4 micrograms of soluble CD19 were used after the CAR T19 cells were grown. The numbers of cells were measured, and ratios between CAR+ cells and the modified T cell population were observed by flow cytometry. The number of CAR copies in the cell population was measured.
T cell phenotypes were further observed. […] Memory cell marker CD62L on CAR+ and CAR-cells were analyzed to determine phenotypes of cultured T cell population.
CAR T19 cells were cultured with CD19 for over 15 days and then were divided into Group 3 and Group 4. CAR T19 cells in Group 3 were continuously cultured with soluble CD19, while CAR T19 cells in Group 4 were cultured without CD19.

CAR T cells = experiment: Long-term culture of CAR T cells (groups A-D) with CD19 antigen, flow cytometry; format: cell-based, human
Text: Various CARs (A, B, C, and D) were constructed by linking a signal peptide (SEQ ID NO: 38), antigen-specific single-chain variable fragment (scFv) (SEQ ID NO: 55 or 21), hinge domain (SEQ ID NOs: 68, 69, 70, or 71), a transmembrane domain (SEQ ID NO: 72, 73, 74, or 75), one or more co-stimulation domains (SEQ ID NO: 3), CD3-ζ (SEQ ID NO: 40), and EGFP, respectively (See FIGS. 12 and 13).
Primary T cells were obtained from the peripheral blood of volunteers. The magnetic beads negative selection was performed using Pan-T kit from Miltenyi Biotec, Inc. to collect T cells from the peripheral blood. On the second day after primary T cell isolation, the collected T cells were infected with lentivirus containing A, B, C, and D CARs, respectively (i.e., Lenti-CARs-IRES-EGFP) to prepare CAR T cells.
On the 14th day after infection, 15,000 CAR T cells of each group were collected, and cultured with 1000 ng/ml CD 19 antigen (i.e., recombinant human CD19 protein. After 15 days of stimulation, the concentration of CD19 was changed to 400 ng/ml. After 20 days of stimulation, the concentration of CD19 was changed to 200 ng/ml and maintained until about 130 days.
The expression of CARs and cell morphology were observed using flow cytometry on day-2, day 15 (FIGS. 14-17), day 17 (FIG. 20), day 65 and day 130 at the beginning of the stimulus. […]

In the case of “TSHR ECD: soluble TSHR, extracellular domain of TSHR, SEQ ID: 34”, the “ratio (P1) of CAR+ cells and the CAR T-TSHR cells” value (CAR T-TSHR cells; 500 ng/ml soluble TSHR ECD) is reported as “significantly increased”, the cell debris (CAR T-TSHR cells; as the proportion of added antigen (TSHR-ECD) increased) is reported as “decreased” and the “MFI value (CAR fluorescence)” value (CAR T-TSHR cells; under 500 ng antigen stimulation) is reported as “increased”. The “SSC-A dispersible FSC low population” value (CAR T-TSHR cells; with increasing concentrations of TSHR ECD (10, 125, 500 ng/ml)) was “decreased”.

With `Nc1nc(O)c2ncn(COC(CO)CO)c2n1` [GCV, Ganciclovir] the “growth of DTT cells (transduced T cells)” value [1] was “grew poorly” and the “growth of NT (non-transduced T cells)” value [1] was “continued to grow”.

B1: CD19 ECD: soluble CD19, extracellular domain (ECD) of CD19, SEQ ID: 41 / SEQ ID NO: 22; recombinant human CD19 protein (protein)
chain: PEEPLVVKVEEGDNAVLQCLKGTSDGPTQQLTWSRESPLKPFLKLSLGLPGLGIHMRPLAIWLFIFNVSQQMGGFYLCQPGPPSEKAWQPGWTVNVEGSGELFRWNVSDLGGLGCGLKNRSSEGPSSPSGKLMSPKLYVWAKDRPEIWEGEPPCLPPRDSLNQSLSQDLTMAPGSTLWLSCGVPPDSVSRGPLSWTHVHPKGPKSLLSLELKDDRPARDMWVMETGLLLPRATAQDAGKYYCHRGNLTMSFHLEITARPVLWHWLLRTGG
For B1, the “percentages of cells expressing CD19 CAR” value [2] was “increased”, the “cell growth rates of hTERT CAR T cells” value [3] was “higher cell growth rates” and the IFN-gamma released (K562-CD19) was “significantly higher”. For the same molecule, the “cells showing the phenotype of memory cells (CD62L hi)” value (CAR T19 cells; CAR T19 cells of Group 2 (cultured with CD19), day 30) was “entire or majority cells”, the “cell expansion during the early stage” value (CAR T19 cells; CD19 ECD added to media vs culturing without CD19 ECD, about day 3 to day 10, non-transduced T cells and CD19 CAR T cells) was “no apparent increases” and the “ratio of CAR T19 cells and T cells (flow cytometry)” value (CAR T19 cells; Group 2 (soluble CD19) vs Group 1) was “higher”. The “copy numbers of CAR T19 cells (qPCR)” value (CAR T19 cells; Group 2 (soluble CD19) vs Group 1 (no CD19)) was “higher”, the “ratio of CAR T19 cells and T cells” value (CAR T19 cells; Group 2, day 30 after the starting point) was “continued to rise” and the “numbers of CAR+ cells” value (CAR T19 cells; Group 4 (CD19 removed after over 15 days) vs Group 3 (continued soluble CD19), Day 27) was “relatively lower”. For the same molecule, the “cell expansion rates of CD19 CAR T cells after the early stage” value (CAR T19 cells; vs cells cultured without the CD19 ECD, after about day 10) was “increased at a higher rate”, the “percentage of CD4 cells” value (CAR T cells; CD19-stimulated cells vs parallel untreated) was “increased” and the “proportion of CAR+EGFP+ cells” value (CAR T cells; after CD19 stimulation) was “increase”.
